In article PMC3491106 (Biochemistry, 2012):
Positions count from the first letter of the chain named.

T1: His6-EhFormin1 GBD-FH3 domain tandem (a.a. 69-418) (E. histolytica, UniProt C4M622 69-418)
T1 sequence (looked up): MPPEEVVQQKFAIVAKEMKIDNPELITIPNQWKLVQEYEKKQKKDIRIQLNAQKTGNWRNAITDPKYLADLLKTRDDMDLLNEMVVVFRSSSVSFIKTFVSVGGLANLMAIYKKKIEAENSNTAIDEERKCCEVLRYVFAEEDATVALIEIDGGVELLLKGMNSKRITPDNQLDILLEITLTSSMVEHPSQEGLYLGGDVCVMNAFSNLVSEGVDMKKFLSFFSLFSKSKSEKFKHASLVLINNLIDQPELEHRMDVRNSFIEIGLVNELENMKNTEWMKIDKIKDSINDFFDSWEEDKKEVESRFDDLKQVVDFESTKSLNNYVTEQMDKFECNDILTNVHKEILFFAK

B1: EhRho1·GTPγS (Entamoeba histolytica Rho1, wild type, loaded with GTPγS) (natural protein, E. histolytica)
chain: MLAFSDMNTGAGKIENGKKALKIVVVGDGAVGKTCLLLAFSKGEIPTAYVPTVFENFSHVMKYKNEEFILHLWDTAGQEEYDRLRPLSYADSDVVLLCFAVNNRTSFDNISTKWEPEIKHYIDTAKTVLVGLKVDLRKDGSDDVTKQEGDDLCQKLGCVAYIEASSVAKIGLNEVFEKSVDCIFSNKPVPK
B2: EhRho1 Arg83 to Gln mutant (natural protein)
chain: B1 chain with R83Q

Columns and labels:
[1] = target: T1, His6-EhFormin1 GBD-FH3 domain tandem …; experiment: SPR
[2] = target: His6-EhFormin1 fusion (GBD-FH3 domain tandem, 40-residue linker, FH2-DAD fragment) (E. histolytica); experiment: SPR

Row | Binder | Kd [1] | Kd [2]
1 | B1 | ~3000 nM | 3000 nM
2 | B2 | > 100000 nM | –
